For orientation: Kd means a measure of binding affinity in units of concentration. A high value points to lower affinity.

The assay addresses SARS-CoV2 Spike protein (ECD, His & Flag Tag) (GenScript, Z03481) (135 kDa) (SARS-CoV2 virus, UniProt P0DTC2 14-1213).

B1: purified recombinant 7G7.1 antibody (antibody, human IgG1, lambda)
heavy: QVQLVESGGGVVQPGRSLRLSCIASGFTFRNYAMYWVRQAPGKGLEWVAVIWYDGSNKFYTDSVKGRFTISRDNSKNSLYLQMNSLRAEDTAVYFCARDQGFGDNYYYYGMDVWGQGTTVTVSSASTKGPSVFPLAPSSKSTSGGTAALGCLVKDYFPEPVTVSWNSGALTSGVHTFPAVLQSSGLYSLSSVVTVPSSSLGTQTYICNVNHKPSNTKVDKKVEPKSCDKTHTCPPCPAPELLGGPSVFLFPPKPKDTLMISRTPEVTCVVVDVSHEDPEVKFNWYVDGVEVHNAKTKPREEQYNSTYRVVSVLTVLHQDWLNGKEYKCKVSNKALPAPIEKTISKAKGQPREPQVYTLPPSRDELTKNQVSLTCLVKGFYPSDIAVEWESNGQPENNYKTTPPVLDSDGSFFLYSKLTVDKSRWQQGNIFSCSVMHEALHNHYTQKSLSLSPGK
light: SYELTQPPSVSVSPGQTARISCSGDALPKEYAYWYQQKPGQAPVLVIYKDSERPSGIPERFSGSSSGTTVTLTISGVQAEDEADYYCQLADSSMHYVVFGGGTKLTVLGQPKAAPSVTLFPPSSEELQANKATLVCLISDFYPGAVTVAWKADSSPVKAGVETTTPSKQSNNKYAASSYLSLTPEQWKSHRSYSCQVTHEGSTVEKTVAPTECS
On to B1, for which the affinity, expressed as Kd, was 2.04 nM.

B2: purified recombinant 7G7.2 antibody (antibody, human IgG1, kappa)
heavy: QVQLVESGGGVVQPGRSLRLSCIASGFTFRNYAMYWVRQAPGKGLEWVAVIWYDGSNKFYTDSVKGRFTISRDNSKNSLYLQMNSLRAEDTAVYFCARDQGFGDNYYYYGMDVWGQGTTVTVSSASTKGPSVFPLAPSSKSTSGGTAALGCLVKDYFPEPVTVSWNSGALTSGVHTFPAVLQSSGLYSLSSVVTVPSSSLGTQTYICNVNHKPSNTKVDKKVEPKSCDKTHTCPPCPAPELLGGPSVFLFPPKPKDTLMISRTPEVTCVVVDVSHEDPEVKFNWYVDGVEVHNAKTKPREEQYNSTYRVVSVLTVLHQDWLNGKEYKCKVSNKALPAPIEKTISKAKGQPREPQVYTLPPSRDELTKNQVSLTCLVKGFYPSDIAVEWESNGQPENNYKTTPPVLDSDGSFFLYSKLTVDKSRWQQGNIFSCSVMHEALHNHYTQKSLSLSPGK
light: SYELTQPPSVSVSPGQTARISCSGDALPKEYAYWYQQKPGQAPVLVIYKDSERPSGIPERFSGSSSGTTVTLTISGVQAEDEADYYCQLADSSMHYVVFGGGTKLTVLRTVAAPSVFIFPPSDEQLKSGTASVVCLLNNFYPREAKVQWKVDNALQSGNSQESVTEQDSKDSTYSLSSTLTLSKADYEKHKVYACEVTHQGLSSPVTKSFNRGEC
B2: the equilibrium dissociation constant (Kd) was 1.55 nM.

For the origin of these results see patent WO2022138911A1 (dated 2022).
